In the supplement of paper PMC12667976:

B1: library; numbered along this chain (parent)
chain: MATDAALRRLLRLHRTEIAVAVDSAFPLLHALADHDVVPEDKFQETLHLKEKEGCPQAFHALLSWLLTQDSTAILDFWRVLFKDYNLERYGRLQPILDSFPKDVDLSQPRKGRKPPAVPKALVPPPRLPTKRKASEEARAAAPAALTPRGTASPGSQLKAKPPKKPESSAEQQRLPLGNGIQTMSASVQRAVAMSSGDVPGARGAVEGILIQQVFESGGSKKCIQVGGEFYTPSKFEDSGSGKNKARSSSGPKPLVRAKGAQGAAPGGGEARLGQQGSVPAPLALPSDPQLHQKNEDECAVCRDGGELICCDGCPRAFHLACLSPPLREIPSGTWRCSSCLQATVQEVQPRAEEPRPQEPPVETPLPPGLRSAGEEVRGPPGEPLAGMDTTLVYKHLPAPPSAAPLPGLDSSALHPLLCVGPEGQQNLAPGARCGVCGDGTDVLRCTHCAAAFHWRCHFPAGTSRPGTGLRCRSCSGDVTPAPVEGVLAPSPARLAPGPAKDDTASHEPALHRDDLESLLSEHTFDGILQWAIQSMARPAAPFPS

Variants of: B1
Assay: AIRE transcriptional activation functional score (insulin promoter-GFP; nonsense median 0, synonymous median 1) (normalised score); higher = higher AIRE activity (more reporter activation)
Details: with insulin promoter-GFP reporter in HEK293
Procedure: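 Deep mutational scan of full-length human AIRE (codon-optimized cDNA, DT-POPCode NNN libraries over three regions) integrated at a Bxb1 landing pad in HEK293 cells carrying an insulin core promoter-GFP reporter at a Flp-In site. Cells were sorted for the top 10% GFP about 14 days after transfection. Variant frequency log-ratios (select vs non-select, TileSeq) were rescaled so that the nonsense median is 0 and the synonymous median is 1, then averaged over biological replicates.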

AIRE transcriptional activation functional score of substitutions, site by site:
G269: A 1.39, F 1.42, D 0.649, H 0.996, C 0.879, I 1.06, K 1.07, E 1.1
K259: P 0.82, I 0.551, D -0.753, W 1.19, R 0.916, F 1.08, N 1.03, S 0.917, C 1.33, T 0.966, Q 0.922, A 1.23, H 0.439, G -0.585, M 1.2, L 0.941, Y 1.31, E 0.714
Q262: N 1.13, L 1.31, D 1.13, H 0.819, G 1.33, T 0.795, Y 1.05, R 0.909, W 1.26, V 0.657, C 0.939, F 1.61, A 1.2, M 0.443, P 1.16, E 1.38, S 0.84, K 0.987, I 1.04
G267: E 1.87, N 0.868, I 1.18, P 0.902, D 0.595, T 1.8, C 1.11, S 0.894, H 1.38, R 0.84, W 1.49, V 1.12, Y 1.02, A 0.9, L 0.938
A261: K 0.843, N 0.506, Y 1.12, M 1.19, S 0.631, F 1.22, E 1.11, I 0.612, C 1.11, Q 1.17, V 1.13, P 1.06, D 0.731, L 0.746, W 1.33, G 1.01, T 1.07, R 0.741, H 0.579
S250: Y 1.26, W 0.939
P254: G 0.342, Y 1.28, H 0.946, T 0.737, F 0.266, L 1.01, V 1.27, K 0.683, S 0.995, I 0.86, W 1.07, R 0.606, D 0.547, C 1.24, E 0.818, M 0.826, Q 1.2, A 0.885, N -0.115
A265: G 0.964, C 0.821, M 1.55, S 1.03, F 1.53, Y 1.25, I 0.975, H 0.76, N 1.54, Q 0.479, W 0.598, L 1.21, T 1.01, K 0.641, P 0.806, R 0.748, E 0.963, V 1.11, D 0.751
R257: M 0.588, Q 0.729, P 0.935, D 1.16, C -0.159, T 0.86, G 0.771, A 0.916, K 0.866, S 0.904, V 0.256, E 1.12, N -1.39, F 0.785, L 0.834, I 0.805, W 0.743
G251: W 1.36, D 1.2, A 0.845, R 0.585, Y 1.42, K 1.05, T 1.09, M 0.603, P -0.0792, I 1.2, N -0.159, V 1.22, L 1.21, Q 0.448, C 0.932, F 1.2, E 1.44, S 0.796, H 1.02
P266: C 1.09, L 0.925, F 1.38, R 0.795, Q 0.916, S 0.824, E 0.486, Y 1.06, M 1.44, H 1.08, D 0.85, V 0.93, K 1.19, N 0.956, I 1.13, A 1.01, T 1.05, W 0.984, G 0.877
P252: H 0.544, C 0.763, M 1.88, N 1.41, Q 0.904, I 0.937, L 1.15, V 1.35, W 0.608, G 0.0827, R 0.567, Y 0.649, T 0.961, A 1.02, F 0.977, D 0.862, S 1.03
G260: A 0.8, L 1.29, Y 1.14, R 1.04, F 0.949, D 0.772, I 1.39, H 1.19, M 2.15, N 1.12, W 1.18, S 1.12, V 1.3, E 1.03, K 0.721, C 1.01, T 1.26
V256: E 0.8, G 1.05, S 1.07, K 0.102, D 0.705, H 0.851, L 0.974, F 1.33, P 0.878, R 0.207, Q 0.671, C 0.771, Y 1.39, W 1.37, A 1.16, N 0.685, T 0.8, M 0.911, I 0.599
A258: H 1.05, F 1.19, S 0.657, C 1.18, Q 0.586, L 0.814, V 1.36, D 0.387, G 0.943, T 0.978, W 1.05, P 1.23, M 0.409, E 1.13, R 0.0043, I 0.643
L255: T 0.506, I 0.98, W 1.1, H 1.28, M -0.804, G 1.24, V 1, E 0.58, Y 0.945, A 0.9, C 0.506, R 0.419, F 1.43, S 0.79, P 1.03, Q 1.01, N 0.614, D 0.362
G268: T 0.742, S 1.09, Q 0.515, N 0.988, W 1.62, M 1.12, Y 0.298, I 1.19, V 1.02, A 0.981, L 1.05, F 1.38, K 0.831, H 0.564, R 1.09, D 0.854, P 0.869, C 1.21, E 1.14
G263: H 0.227, V 1.25, I -0.607, T 1.06, Y 1.34, E 1.42, D 1.31, P 0.887, R 0.812, S 1.23, M 0.957, L 0.99, Q -0.785, A 0.875, C 0.73, F 0.212, W 1.29, K 1.27
A264: E 0.901, L 1.18, Y -0.0795, H 1.68, D -0.0126, Q 0.566, M 1.01, K 0.671, T 1.22, I -1.66, F 1, C 0.799, W 1.57, P 0.912, V 1.07, G 1.29, S 1.18, R 1.05
K253: S 0.754, F 0.823, A 1.28, I 0.921, C 1.39, T 0.479, R 0.777, W 1.23, D -0.542, P 0.292, E 0.587, L 0.694, G 0.631, V 0.867, Q 1.95, Y 0.499, N 0.817, M 1.04
